This note sets out measurements from patent US20230322953A1 (HARBOUR BIOMED SHANGHAI, published 2023).

In assay [1] the target is T1, biotinylated human BCMA-Fc, Avitag recombinant protein (ACRO Biosystems, #BC7-H82F0) (human, UniProt Q02223 1-54, biotinylated (Avitag)).
T1 construct: extracellular domain; Bought protein; also called huBCMA.Fc; recombinant human BCMA-ECD-Fc
T1 sequence (looked up): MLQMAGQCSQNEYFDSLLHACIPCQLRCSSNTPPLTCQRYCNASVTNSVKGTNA
Nature of the assay: BLI (Octet Red96e), biotinylated BCMA-Fc on SA sensor, 1:1 global fitting.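 Note: Anti-BCMA antibodies analysed as binding partners of the captured BCMA antigen, with reference signals removed by double referencing before kinetic fitting.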 For orientation: BLI is a label-free optical method that tracks binding on a fibre tip over time.

Assay [2] has as its target T2, cynomolgus monkey BCMA (ACRO Biosystems, #BCA-C82F4) (cynomolgus monkey, UniProt A0A2K5UD97 1-53).
T2 construct: Bought protein; also called cyBCMA.Fc
Kind of assay: BLI (Octet Red96e), cyBCMA.Fc on SA sensor, 1:1 global fitting.

The target in assay [3] is T2, cynomolgus monkey BCMA (ACRO …). Kind of assay: BLI; KD for cynomolgus monkey BCMA divided by KD for human BCMA.
The target of assay [4] is T3, human CD3 (TCR/CD3 complex) on human T cells (human, UniProt P07766 23-207).
T3 construct: whole, on cells
Kind of assay: flow cytometry (FACS) on human T cells, Experiment 2.

Assay [5] has as its target T3, human CD3 (TCR/CD3 complex) on human T …. Kind of assay: flow cytometry (FACS) on human T cells, Experiment 1. (In flow cytometry, cells or beads pass a laser one at a time.)
Assay [6] has the same target. Nature of the assay: flow cytometry (FACS) on human T cells, Experiment 3.
Assay [7] has as its target T4, cynomolgus monkey CD3 (TCR/CD3 complex) on cynomolgus monkey T cells (cynomolgus monkey).
T4 construct: whole, on cells
Nature of the assay: flow cytometry (FACS) on cynomolgus monkey T cells.

Residue numbers refer to the chain shown, from its start.

T2 sequence (A0A2K5UD97 entry or part of it): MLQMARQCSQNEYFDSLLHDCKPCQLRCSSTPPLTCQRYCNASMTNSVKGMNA
T3 sequence (P07766 23-207, one chain of several): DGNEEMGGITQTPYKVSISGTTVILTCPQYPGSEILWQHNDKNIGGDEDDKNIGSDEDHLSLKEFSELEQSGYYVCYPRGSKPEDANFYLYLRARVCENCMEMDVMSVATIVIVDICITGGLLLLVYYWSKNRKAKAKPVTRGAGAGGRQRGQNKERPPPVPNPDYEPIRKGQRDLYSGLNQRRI
T4 sequence (Q95LI5 22-198, one chain of several): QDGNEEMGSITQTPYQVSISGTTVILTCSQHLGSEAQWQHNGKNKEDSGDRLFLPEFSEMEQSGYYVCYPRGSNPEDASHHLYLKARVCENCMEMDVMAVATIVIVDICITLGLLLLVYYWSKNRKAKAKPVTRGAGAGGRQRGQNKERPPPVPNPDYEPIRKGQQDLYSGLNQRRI

B1: PR001046, anti-BCMA HCAb antibody (clone 1005P63B7) (antibody, human IgG1, V domains shown)
VH: EVQLVETGGGLIQPGGSLRLSCAASGFTVSDNYMTWVRQAPGKGLEWVSVIFSGGNTYYADSVKGRFTISRDNAKNTLYLQMNSLRAEDTALYYCARRNYDDTRGTDVFDIWGQGTMVTVSS
Consider B1, for which, in assay [1], the Kd (usually the equilibrium constant for the complex coming apart) is 0.0775 nM; the koff – broadly, the rate constant with which the complex falls apart – was 3.56e-05 s⁻¹; the kon (in general, the second-order rate constant of association) amounted to 459000 M⁻¹ s⁻¹. For the same molecule, in assay [2], the Kd worked out at 0.119 nM, the koff is 7.54e-05 s⁻¹ and the on-rate (kon) was 633000 M⁻¹ s⁻¹. For the same molecule, the “KD ratio (cy BCMA/hu BCMA)” value in assay [3] is 1.54.

B2: PR001999 (bispecific antibody, IgG1)
chain 1: QAVVTQEPSLTVSPGGTVTLTCRSSTGAVTTSNYANWVQQKPGQAPRGLIGGTNKRAPWTPARFSGSLLGDKAALTLLGAQPEDEAEYFCALWYSNLWVFGGGTKLTVLGGGQSGQGGSGGGGSEVQLVESGGGLVQPGGSLKLSCAASGFTFNTYAMNWVRQASGKGLEWVGRIRSKYNNYATYYADSVKDRFTISRDDSKSTLYLQMNSLKTEDTAVYYCVRHGNFGNSYVSWFAYWGQGTLVTVSSASEPKSSDKTHTCPPCPAPEAAGGPSVFLFPPKPKDTLMISRTPEVTCVVVDVSHEDPEVKFNWYVDGVEVHNAKTKPREEQYNSTYRVVSVLTVLHQDWLNGKEYKCKVSNKALGAPIEKTISKAKGQPREPQVYTLPPCREEMTKNQVSLWCLVKGFYPSDIAVEWESNGQPENNYKTTPPVLDSDGSFFLYSKLTVDKSRWQQGNVFSCSVMHEALHNHYTQKSLSLSPGK
chain 2: EVQLLESGGGLVQPGGSLRLSCAASGFTFSSYAMIWVRQAPGKGLEWVSGISESGGSTYYADSVKGRFTISRDNSKNTLYLQMNSLRAEDTAVYFCVKDLDDILTGYYKDYWGQGTLVTVSSASEPKSSDKTHTCPPCPAPEAAGGPSVFLFPPKPKDTLMISRTPEVTCVVVDVSHEDPEVKFNWYVDGVEVHNAKTKPREEQYNSTYRVVSVLTVLHQDWLNGKEYKCKVSNKALGAPIEKTISKAKGQPREPQVCTLPPSREEMTKNQVSLSCAVKGFYPSDIAVEWESNGQPENNYKTTPPVLDSDGSFFLVSKLTVDKSRWQQGNVFSCSVMHEALHNHYTQKSLSLSPGK
notes: IgG1 knob/hole, AAG
Take B2: the “Maximum MFI” value in assay [4] turned out to be 1170 MFI.

B3: PR000260, anti-CD3 monoclonal antibody SP34 (hIgG1 chimeric antibody) (antibody, V domains shown)
VH: EVQLVESGGGLVQPKGSLKLSCAASGFTFNTYAMNWVRQAPGKGLEWVARIRSKYNNYATYYADSVKDRFTISRDDSQSILYLQMNNLKTEDTAMYYCVRHGNFGNSYVSWFAYWGQGTLVTVSA
VL: QAVVTQESALTTSPGETVTLTCRSSTGAVTTSNYANWVQEKPDHLFTGLIGGTNKRAPGVPARFSGSLIGDKAALTITGAQTEDEAIYFCALWYSNLWVFGGGTKLTVLG
As for B3, the “Maximum MFI” value in assay [5] is 7160 MFI; in assay [4], 6030 MFI.

B4: PR000274, anti-BCMA monoclonal antibody CA8-J6M0 (antibody, human IgG1, kappa, V domains shown)
VH: QVQLVQSGAEVKKPGSSVKVSCKASGGTFSNYWMHWVRQAPGQGLEWMGATYRGHSDTYYNQKFKGRVTITADKSTSTAYMELSSLRSEDTAVYYCARGAIYDGYDVLDNWGQGTLVTVSS
VL: DIQMTQSPSSLSASVGDRVTITCSASQDISNYLNWYQQKPGKAPKLLIYYTSNLHSGVPSRFSGSGSGTDFTLTISSLQPEDFATYYCQQYRKLPWTFGQGTKLEIKR
notes: also called Positive control 1; CA8-J6M0 hIgG1
Consider B4, for which, in assay [1], the equilibrium dissociation constant (Kd) is 0.655 nM, the off-rate (koff) came to 0.000135 s⁻¹ and the on-rate constant (kon) amounted to 206000 M⁻¹ s⁻¹. Also, in assay [2], the Kd came to 0.0388 nM, the koff was determined as 7.76e-06 s⁻¹ and the kon came to 200000 M⁻¹ s⁻¹. For the same molecule, the “KD ratio (cy BCMA/hu BCMA)” value in assay [3] was 0.06.

B5: PR001997 (bispecific antibody, IgG1)
chain 1: EVQLLESGGGLVQPGGSLRLSCAASGFTFNTYAMNWVRQAPGKGLEWVSRIRSKYNNYATYYADSVKDRFTISRDDSKSTLYLQMNSLRAEDTAVYYCVRHGNFGNSYVSWFAYWGQGTLVTVSSASTKGPSVFPLAPSSKSTSGGTAALGCLVKDYFPEPVTVSWNSGALTSGVHTFPAVLQSSGLYSLSSVVTVPSSSLGTQTYICNVNHKPSNTKVDKKVEPKSC
chain 2: QAVVTQEPSLTVSPGGTVTLTCRSSTGAVTTSNYANWVQQKPGQAPRGLIGGTNKRAPWTPARFSGSLLGDKAALTLLGAQPEDEAEYFCALWYSNLWVFGGGTKLTVLGQPKAAPSVTLFPPSSEELQANKATLVCLISDFYPGAVTVAWKADSSPVKAGVETTTPSKQSNNKYAASSYLSLTPEQWKSHRSYSCQVTHEGSTVEKTVAPTECSDKTHTCPPCPAPEAAGGPSVFLFPPKPKDTLMISRTPEVTCVVVDVSHEDPEVKFNWYVDGVEVHNAKTKPREEQYNSTYRVVSVLTVLHQDWLNGKEYKCKVSNKALGAPIEKTISKAKGQPREPQVYTLPPCREEMTKNQVSLWCLVKGFYPSDIAVEWESNGQPENNYKTTPPVLDSDGSFFLYSKLTVDKSRWQQGNVFSCSVMHEALHNHYTQKSLSLSPGK
chain 3: EVQLVETGGGLIQPGGSLRLSCAASGFTVSSNYMTWVRQAPGKGLEWVSVIFSGGSTYYADSVKGRFTISRDNSKNTLYLQMNSLRAEDTAVYYCARRIAVAGHDVFDIWGQGTMVTVSSASEPKSSDKTHTCPPCPAPEAAGGPSVFLFPPKPKDTLMISRTPEVTCVVVDVSHEDPEVKFNWYVDGVEVHNAKTKPREEQYNSTYRVVSVLTVLHQDWLNGKEYKCKVSNKALGAPIEKTISKAKGQPREPQVCTLPPSREEMTKNQVSLSCAVKGFYPSDIAVEWESNGQPENNYKTTPPVLDSDGSFFLVSKLTVDKSRWQQGNVFSCSVMHEALHNHYTQKSLSLSPGK
notes: Structure 13 (Fab(cross Fd/LC)-Fc-VH): CD3 Fab from PR000511, BCMA VH from PR001035; IgG1 knob/hole, AAG
Take B5: in assay [4], the “Maximum MFI” value was 4460 MFI.

B6: PR002000 (bispecific antibody, IgG1)
chain 1: B2 chain 1
chain 2: B5 chain 3 with T28P, T35S, S56R, I99N, A100W, V101I, A102D, H104R, V106A
notes: Structure 20 (scFv(VL-VH)-Fc-VH): CD3 scFv from PR000510, BCMA VH from PR000943; IgG1 knob/hole, AAG
In the case of B6, in assay [4], the “Maximum MFI” value is 1730 MFI.

B7: PR002929 (bispecific antibody, human IgG1, lambda, L234A L235A)
light: QAVVTQEPSLTVSPGGTVTLTCRSSTGAVTTSNYANWVQQKPGQAPRGLIGGTNKRAPWTPARFSGSLLGDKAALTLLGAQPEDEAEYFCALWYSNLWVFGGGTKLTVLGQPKAAPSVTLFPPSSEELQANKATLVCLISDFYPGAVTVAWKADSSPVKAGVETTTPSKQSNNKYAASSYLSLTPEQWKSHRSYSCQVTHEGSTVEKTVAPTECS
heavy: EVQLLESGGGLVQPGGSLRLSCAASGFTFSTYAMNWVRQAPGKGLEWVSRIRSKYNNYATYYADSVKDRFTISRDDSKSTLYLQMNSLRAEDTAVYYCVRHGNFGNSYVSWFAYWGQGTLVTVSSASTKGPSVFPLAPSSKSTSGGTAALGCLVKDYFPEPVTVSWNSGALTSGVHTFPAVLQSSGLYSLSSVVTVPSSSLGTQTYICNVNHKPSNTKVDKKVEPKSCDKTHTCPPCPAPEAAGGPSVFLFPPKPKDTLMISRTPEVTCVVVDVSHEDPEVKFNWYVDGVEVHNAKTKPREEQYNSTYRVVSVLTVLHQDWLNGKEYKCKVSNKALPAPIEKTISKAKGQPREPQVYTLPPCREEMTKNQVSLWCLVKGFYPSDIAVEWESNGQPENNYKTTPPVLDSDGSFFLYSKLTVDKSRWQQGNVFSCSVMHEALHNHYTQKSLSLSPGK
chain: EVQLVETGGGLIQPGGSLRLSCAASGFTVSDNYMTWVRQAPGKGLEWVSVIFSGGNTYYADSVKGRFTISRDNAKNTLYLQMNSLRAEDTALYYCARRNYDDTRGTDVFDIWGQGTMVTVSSASEPKSSDKTHTCPPCPAPEAAGGPSVFLFPPKPKDTLMISRTPEVTCVVVDVSHEDPEVKFNWYVDGVEVHNAKTKPREEQYNSTYRVVSVLTVLHQDWLNGKEYKCKVSNKALPAPIEKTISKAKGQPREPQVCTLPPSREEMTKNQVSLSCAVKGFYPSDIAVEWESNGQPENNYKTTPPVLDSDGSFFLVSKLTVDKSRWQQGNVFSCSVMHEALHNHYTQKSLSLSPGK
Consider B7, for which, in assay [1], the dissociation constant (Kd) is 5.95 nM, the koff was determined as 0.00148 s⁻¹ and the kon is 249000 M⁻¹ s⁻¹. Besides, in assay [6], the “Maximum MFI” value was 283000 MFI. For the same molecule, in assay [2], the Kd is 6.62 nM, the koff turned out to be 0.00582 s⁻¹ and the kon came out at 879000 M⁻¹ s⁻¹. In addition, the “KD ratio (cy BCMA/hu BCMA)” value in assay [3] was determined as 1.11. Also, the “Maximum MFI” value in assay [7] turned out to be 10100 MFI.

B8: PR002002 (bispecific antibody, IgG1)
chain 1: B2 chain 1
chain 2: B7 chain with P238G
notes: Structure 20 (scFv(VL-VH)-Fc-VH): CD3 scFv from PR000510, BCMA VH from PR001046; IgG1 knob/hole, AAG
In the case of B8, the “Maximum MFI” value in assay [4] stood at 1120 MFI.

B9: PR001998 (bispecific antibody, IgG1)
chain 1: B5 chain 1
chain 2: B5 chain 2
chain 3: B7 chain with P238G
notes: Structure 13 (Fab(cross Fd/LC)-Fc-VH): CD3 Fab from PR000511, BCMA VH from PR001046; IgG1 knob/hole, AAG
As for B9, in assay [4], the “Maximum MFI” value amounted to 3320 MFI.
